Test results published in the supplement of paper PMC10126150.
± gives the standard deviation of the averaged measurements.

test system: ATP; assay: switch fluorescence ratio, 500 uM ATP over buffer (Cy3 cluster intensity, sum of 5 cycles each) (fold (ratio)); higher = stronger signal-on switching upon ATP binding; sequences stand for … in TCGTCGGCAGCGTCAGATGTGTATAAGAGACAGTTTTTTTTTTTTTTTTTTTTTTTTT…TC; settings: aptamer strand: ATP DNA aptamer (quencher-CACCTGGGGGAGTATTGCGGAGGAAGG + anchor), 100 nM annealed; ATP concentration: 500 uM
How it was run: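 Cy3-labelled switching-strand clusters on a modified Illumina MiSeq flow-cell were annealed to 100 nM quencher-labelled ATP aptamer and imaged first in selection buffer, then after 15 min with 500 uM ATP at 22 °C. NaOH stripping and re-annealing separated each of five buffer/ATP cycles, and clusters outside 100-1000 RFU were excluded. The fluorescence ratio sums target-cycle Cy3 intensity over buffer-cycle Cy3 intensity per cluster and averages it per switch-domain sequence.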
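Also: ATP exposure 15 min at 22 °C before imaging.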

Sequence | switch fluorescence ratio
GTTGTGTCCG | 1.01 ± 0.067
GTTGTTAAAT | 1.011 ± 0.0047
GTTGTTATAG | 1.02 ± 0.039
GTTGTTATAT | 1.02 ± 0.037
GTTGTTATCG | 0.993 ± 0.028
GTTGTTCTGA | 0.9718 ± 0.0033
GTTGTTGAAT | 0.992 ± 0.026
GTTGTTGTTT | 0.999 ± 0.0094
GTTGTTTAGC | 0.974 ± 0.022
GTTGTTTCGT | 1 ± 0.017
GTTGTTTGGG | 0.99 ± 0.034
GTTGTTTTCA | 0.993 ± 0.024
GTTTAAATTA | 1.02 ± 0.018
GTTTACCGGA | 1.05 ± 0.08
GTTTAGATGT | 0.994 ± 0.02
GTTTAGCTGT | 0.9948 ± 0.0021
GTTTAGGCCC | 1 ± 0.041
GTTTATGCCA | 0.997 ± 0.029
GTTTATGTGG | 0.981 ± 0.025
GTTTATTGTC | 1.04 ± 0.037
GTTTCAAGAG | 1.03 ± 0.012
GTTTCAAGCG | 1.02 ± 0.025
GTTTCAGGCT | 0.9888 ± 0.0041
GTTTCGAGTA | 0.957 ± 0.049
GTTTCGGGCT | 1.01 ± 0.012

Sequence | switch fluorescence ratio
GTTTCGGGTT | 0.986 ± 0.019
GTTTCGGTGG | 0.986 ± 0.085
GTTTCGTGGG | 0.976 ± 0.031
GTTTCGTTTC | 1.01 ± 0.025
GTTTCTATGG | 0.9961 ± 0.0085
GTTTCTGGCC | 0.98 ± 0.019
GTTTCTGGGG | 0.971 ± 0.052
GTTTGAAAGT | 0.957 ± 0.01
GTTTGAAATT | 1.03 ± 0.09
GTTTGAAGCC | 1.04 ± 0.078
GTTTGAAGCG | 1 ± 0.054
GTTTGAAGGG | 0.974 ± 0.05
GTTTGAAGGT | 1.01 ± 0.011
GTTTGAATGT | 0.97301 ± 0.0004
GTTTGATGGG | 0.981 ± 0.033
GTTTGCCATG | 0.998 ± 0.047
GTTTGCCTCC | 1.03 ± 0.021
GTTTGCGTTG | 0.979 ± 0.042
GTTTGCTACG | 1.005 ± 0.004
GTTTGCTGTT | 0.9931 ± 0.0089
GTTTGGCCAT | 1.02 ± 0.02
GTTTGGGAGG | 0.963 ± 0.01
GTTTGGGGAT | 0.972 ± 0.022
GTTTGGGTCT | 0.997 ± 0.013
GTTTGGTTAT | 0.995 ± 0.012

Sequence | switch fluorescence ratio
GTTTGTATAG | 1 ± 0.03
GTTTGTATTA | 0.996 ± 0.011
GTTTGTATTT | 1 ± 0.017
GTTTGTGAAT | 0.9814 ± 0.0086
GTTTGTGCAT | 1.025 ± 0.0083
GTTTGTGGCG | 0.959 ± 0.024
GTTTGTTGTT | 0.9819 ± 0.0016
GTTTGTTTGG | 0.974 ± 0.023
GTTTTAAATG | 0.975 ± 0.016
GTTTTAATTT | 0.988 ± 0.019
GTTTTACCGG | 1 ± 0.022
GTTTTACGGA | 1.003 ± 0.0065
GTTTTATGGG | 0.969 ± 0.038
GTTTTCAACA | 0.98916 ± 0.00045
GTTTTCCACA | 0.987 ± 0.067
GTTTTCGACT | 1.04 ± 0.0095
GTTTTCGAGC | 1.11 ± 0.043
GTTTTCGTGG | 0.995 ± 0.021
GTTTTGAATT | 1 ± 0.04
GTTTTGAGTT | 1 ± 0.021
GTTTTGATTA | 0.973 ± 0.017
GTTTTGGGAC | 0.993 ± 0.027
GTTTTGGTCC | 0.997 ± 0.012
GTTTTGTGGG | 0.968 ± 0.034
GTTTTGTTTG | 0.9553 ± 0.0016

Sequence | switch fluorescence ratio
GTTTTTAAGG | 1.02 ± 0.032
GTTTTTCCAT | 1 ± 0.024
GTTTTTCCTG | 0.981 ± 0.055
GTTTTTCTTC | 0.9923 ± 0.0058
GTTTTTGCGG | 0.9784 ± 0.0044
GTTTTTGGTT | 1 ± 0.028
GTTTTTGTGT | 0.987 ± 0.025
GTTTTTTTAT | 0.987 ± 0.02
GTTTTTTTGC | 0.9766 ± 0.006
GTTTTTTTTG | 0.999 ± 0.029
TAAAAAAAAT | 1.02 ± 0.033
TAAAAAAAGA | 0.999 ± 0.046
TAAAAAAAGC | 1.031 ± 0.0015
TAAAAAAGAA | 0.97 ± 0.03
TAAAAAATTC | 1.03 ± 0.04
TAAAAAGACC | 0.976 ± 0.035
TAAAAAGCAT | 1.007 ± 0.0031
TAAAAAGCGG | 1.01 ± 0.054
TAAAAATTCA | 1.009 ± 0.0021
TAAAAATTGC | 1.02 ± 0.048
TAAAACGATC | 0.966 ± 0.036
TAAAACGGTG | 1.05 ± 0.029
TAAAACTTGG | 0.999 ± 0.065
TAAAACTTTT | 1.02 ± 0.043
TAAAAGAACT | 1.03 ± 0.038

Sequence | switch fluorescence ratio
TAAAAGATCG | 1.03 ± 0.034
TAAAAGCAAT | 2.1 ± 0.9
TAAAAGCTAA | 1 ± 0.031
TAAAAGGGAA | 1.01 ± 0.024
TAAAAGGGAC | 1.01 ± 0.028
TAAAAGGTCC | 1.04 ± 0.038
TAAAAGTCTA | 0.9999 ± 0.0094
TAAAATACGT | 0.995 ± 0.042
TAAAATATTA | 1.03 ± 0.02
TAAAATGGGT | 0.996 ± 0.03
TAAAATTAGT | 0.9938 ± 0.0073
TAAAATTATG | 0.974 ± 0.019
TAAAATTCGA | 0.9784 ± 0.0059
TAAAATTGGT | 0.983 ± 0.027
TAAAATTTTA | 0.988 ± 0.023
TAAACAGCTG | 0.955 ± 0.043
TAAACATCAC | 1.164 ± 0.011
TAAACGCTGG | 0.999 ± 0.014
TAAACTTG | 1.04 ± 0.086
TAAACTTGAC | 1.16 ± 0.1
TAAAGAAACT | 1.28 ± 0.35
TAAAGAAAGA | 1.1 ± 0.23
TAAAGAACAT | 0.997 ± 0.057
TAAAGAAGTG | 1.01 ± 0.033
TAAAGAGTGT | 1.01 ± 0.0042

Sequence | switch fluorescence ratio
TAAAGATAAG | 0.98 ± 0.024
TAAAGCAGTA | 0.995 ± 0.018
TAAAGCGTTT | 1.12 ± 0.27
TAAAGCTGCT | 0.9705 ± 0.0071
TAAAGGAAGT | 0.983 ± 0.04
TAAAGGAATT | 1.05 ± 0.03
TAAAGGCCGT | 1.01 ± 0.018
TAAAGGGAAT | 1.02 ± 0.056
TAAAGGGATG | 0.956 ± 0.017
TAAAGGGGAA | 1.01 ± 0.047
TAAAGGGGCA | 1 ± 0.028
TAAAGGGGTT | 0.986 ± 0.035
TAAAGGTAGT | 1 ± 0.032
TAAAGGTCTT | 1.01 ± 0.016
TAAAGGTGAA | 1.077 ± 0.0066
TAAAGTAGTT | 1.01 ± 0.044
TAAAGTGGCT | 0.985 ± 0.03
TAAAGTTTAG | 1.02 ± 0.015
TAAATAATCG | 0.968 ± 0.038
TAAATAATTG | 1.008 ± 0.0069
TAAATAATTT | 1.01 ± 0.028
TAAATAGTGG | 0.987 ± 0.013
TAAATATGTG | 0.986 ± 0.021
TAAATGGCCA | 0.9798 ± 0.0051
TAAATGGCGT | 1.01 ± 0.033

Sequence | switch fluorescence ratio
TAAATTAGCC | 1.03 ± 0.014
TAAATTATGT | 0.9816 ± 0.0076
TAAATTATTG | 0.9768 ± 0.0079
TAAATTGATA | 0.9924 ± 0.0055
TAAATTGATG | 1.036 ± 0.0049
TAAATTTAAG | 1 ± 0.027
TAAATTTTAG | 1.007 ± 0.0026
TAAATTTTAT | 1.012 ± 0.0058
TAAATTTTTC | 1.042 ± 0.008
TAACAATATT | 0.99495 ± 0.00094
TAACAATTAA | 1.03 ± 0.058
TAACAATTGT | 1.12 ± 0.18
TAACAGAGTG | 1 ± 0.023
TAACAGGAAT | 0.966 ± 0.042
TAACAGGCGG | 0.991 ± 0.028
TAACAGGTAG | 1.05 ± 0.035
TAACAGGTAT | 1 ± 0.046
TAACATGGCC | 1 ± 0.022
TAACCACCTT | 1.12 ± 0.044
TAACCAGTTA | 1.04 ± 0.019
TAACCCGGGC | 1.03 ± 0.066
TAACCTACCG | 1.41 ± 0.037
TAACGAACGC | 1.65 ± 0.086
TAACGCCCTA | 1.07 ± 0.019
TAACGCCGTG | 1.02 ± 0.029

Sequence | switch fluorescence ratio
TAACGCTGCC | 1.25 ± 0.12
TAACGGCATG | 1.031 ± 0.0035
TAACGGGTTG | 1.03 ± 0.029
TAACGTATGT | 0.9929 ± 0.0046
TAACGTTTAT | 1.01 ± 0.032
TAACTAAATT | 0.98675 ± 0.00031
TAACTCAAGA | 0.9979 ± 0.0066
TAACTGGGTT | 1.02 ± 0.036
TAACTTATAA | 0.991 ± 0.0024
TAAGAAAGTT | 1.41 ± 0.58
TAAGAAGTCT | 1.04 ± 0.048
TAAGAATTCG | 1.04 ± 0.056
TAAGAATTTG | 1.22 ± 0.34
TAAGACATTT | 1.03 ± 0.04
TAAGAGAATT | 1.02 ± 0.023
TAAGAGAGAA | 0.986 ± 0.021
TAAGAGATTG | 1.01 ± 0.022
TAAGAGCAGG | 1.1 ± 0.091
TAAGAGGCGC | 0.958 ± 0.077
TAAGAGGGGA | 1.01 ± 0.027
TAAGAGGGTC | 0.999 ± 0.041
TAAGAGGGTT | 1 ± 0.022
TAAGATAGGA | 0.982 ± 0.013
TAAGATAGTA | 0.993 ± 0.023
TAAGATCTGG | 1.006 ± 0.0021
